Measurements taken from the DeepSol protein solubility set.

Assay: soluble on expression in E. coli; label from the status in PepcDB or PDB records

| Sequence | soluble on expression in E. coli |
| --- | --- |
| MGSDKIHHHHHHMSEPLRIIHGAFGRVALLLLDRTMAVHAHRVCHVVFKIGGVDILFGVRELEHYLSDDNVLLVNAWEPHFYNHNRDAPSTVLLALYLEPQWLRKVDTRFSCSAHPKFFSQPILALGSKLAGLRADLLDLLTGRESTGSRVVEDLIVRTIIELACVGTRWKELLECQLMGSLAYDARIRQSLDEMKSRGGVALDFDEIASSVGLSRPHFFHLFRKQIGMTPATFGSMLRMEASIDSLAATDTAIHDIARHLGFDSPGNFTRFFLCQQGVTPSQYRRKVEFTTLTCS | not soluble |
| MIDLHTHTIFSDGELIPSELVRRAVIHGYEAIALTDHADYTNLEQLLDAAKKAKYLEEEWDIRVLSGVELTHVPPRKIAPMAKKAKELGAEIVVVHGETISEPVAQGTNAASAACEYVDILAHPGLISEEDVRTAAENNVFLELTARNGHNRTNGHVARLALEFGATLVVNTDTHAPENLITDETALKIAMGAGL | not soluble |
| MRLFAINAGNFKLDGGAMFGVVPKSIWNKLNPADSNNLCTWATRCLLIENGKQLVLIDTGLGDKQDESFFRHYYRDTPQTWDTLLKPYGFHSSDITDVVLTHLHFDHVGGALEKKGDKIVPTFSNARYWSNTRHWDWAVEPNPREKASFLKDNLFPLQESGQLYFVDTQNLPFEWMDFIFVDGHTEQQMLPLITTPAEKKILYAADLLPSAGHIPMPYIMSYDVRPLVSMQEKERVFNQVLAEDWTVFLEHDLSNACISLQQTEKGIRLNNVFQISDFNLEHHHHHH | not soluble |
| MQAVGLITEYNPLHNGHRYHLRQAQQLTNADCVIVVMSGDWLQRGEPAILDKWTRAKLALENGADLVIELPVFFATQPAHLFARGGIELLSALDCTSVVFGAEHPELDFQRLATAIAARQGSFTHYNATFATQFNAALQAATGVTLTAANDMLSFCYYAANQTLAHPMQLLPIKRRQADHATTTIAADSRYASGTAVRQAALAQDWAALKPVVPADTFTALTTQRLQ | not soluble |
| MLAAFQQQQTRKFSPITNTSASCLNMQPNPPKISIAPSVISVIGVHMEKHKLKIKTGQNIVLSASILPIQATNKELIWSNMNSDIITIYPKGDTVTITGKSAGKAVVIVTTAEGKFRDLCVIHVQPYMTNPK | not soluble |
| GPFPPPGMSLPEYWGEEHVWWDGRAAFHGEVVRPACTLAMEDAWQIIDMGETPVRDLQNGFSGPERKFSLRLRNCEFNSQGGNLFSDSRIRVTFDGVRGETPDKFNLSGQAKGINLQIADVRGNIARAGKVMPAIPLTGNEEALDYTLRIVRNGKKLEAGNYFAVLGFRVDYE | soluble |
| MHHHHHHMKEIATEYSFIKYTELELDDNGSIKQLSIPNKYNVIYAIAINDELVYIGKTKNLRKRINYYRTAINRKDKTSDSTKSALIHSALKEGSKVEFYARQCFNLSMTNELGTMTIATIDLEAPLFIKLFNPPWNIQHKKK | soluble |
| MGSDKIHHHHHHMSHSTDLSALARWMAADFSNQAQAFENPPFYAHIRVAIRPLDQAKFGDRLLFLEQAYDFMLQRPYRLRVLKLKVVEDHIEIENFKVKDEEKFYGAARDLGKLAQLTPADLEPMHGCDMIVEWTGTSFKGEVQPGRQCRVMRDGKETYLENSFEVSETGLISLDRGYDPETNERVWGSVAGAFHFVRWQSFADEVSF | not soluble |
| MSLGIRSGNNNGGFTNLTSQAPQTTQMFQSQSQLQPQPQPQPQQQQQHLQFNGSSDASSLRFGNSLSNTVNANNYSSNIGNNSINNNNIKNGTNNISQHGQGNNPSWVNNPKKRFTPHTVIRRKTTKQNSSSDINQNDDSSSMNATMRNFSKQNQDSKHNERNKSAANNDISSLLSNFNDIPPSVTLQDWQREDEFGSIPSLTTQFVTDKYTAKKTNRSAYDSKNTPNVFDKDSYVRIANIEQNHLDNNYNTAETNNKVHETSSKSSSLSAIIVFGYPESISNELIEHFSHFGHIMEDFQVLRLGRGINPNTFRIFHNHDTGCDENDSTVNKSITLKGRNNESNNKKYPIFTGESWVKLTYNSPSSALRALQENGTIFRGSLIGCIPYSKNAVEQLAGCKIDNVDDIGEFNVSMYQNSSTSSTSNTPSPPNVIITDGTLLREDDNTPAGHAGNPTNISSPIVANSPNKRLDVIDGKLPFMQNAGEGHHHHHH | soluble |
| MGSDKIHHHHHHMKEIALLAIARYGDLIQTTPLVRALRRAHPGARITAIVEDRFCGILPLLPGIDRTIVLNKQDIAWDIATGDSPLVPYLKMDEFVRKLEEGSYDLLVNITCSRLSAFFASCVTSRRRTGISADEAGERNIVTLWGQYIFSWFNDNIRKYNAINLVDIFTRLGEVPPDGRRVELVATEKGERFADDFLDRHGLRGQRLVGLQLGASEATRIWPAEHFARISDRLQRELGVRTILFGAPVEKHLAGQAMAAMEMPAVDAVGETGIEELYSLVGRCAALVSNDTGTMHFAAAAGVPAVMLCIGPAFFRCTGPYGEGHLALQPDLPCSPCPYSLVCADPVCRDTISPEAVFSACRMILAGADGLGNADFSGVRVYRSSFAPDGYLTWDGLFNVDAWEEEQVKRRESAWKGCFDGSTKGCGAPGDETLRAFWELTGRGIEATEAIIRAARKKPLPVDEIRRLGEKESAIEAEVKLMGYRHEPLAPVTEFLTLMRENITGEELGRIARETRSLYETGRCLAALL | not soluble |
| MSLERPLCISYIRFSKATQAEGSSLERQLQLSRTYAEEHGLVLDDKHSYQDLGKSAFTSEHVKEGEFGVFLEFVKQGRVPKGSVLLVESLDRLSRESVLTAFKQFQEILDAGIKIVTLSDKMEYTKEGFEANIGNIFISLGIMARANEESLRKSERICAAWRLKRKNLHNIKLTANCPGWLELTPDKKDFILKEDRVEIVKQIFELSLSGLGVKAISTILNKQKIEPFRSKIGWYQTTVRKILSNSAVIGEFQPHVFGSKHSKPVPDGELIKDYFPPIIDTDTFYAVQAKLKNGAHRPGRTAKVENLFSGYTRCGYCGSRMDVVARHNVGGEVRYLVCDSARRGVKCSYISMKCNEIEKAFFEYCREIDIRYVLRAEQQADQNRLNELRKSLTARNGKLMKVQKQIDMLNVFLDDITERAELEHYHEQIKKKLEEKTNLSEEIEKLSKGICIAEYDNNNIDVRVQNLLTLDKAQNKSVKEDDKIMFRIRLRDELRQIISQILVYPRGSVFSDEQIEQKERDYEIKIKSASDSEKHILKHEKTIDLDGMRQSQQNTKDDRFFVVRFKNGNYRTIKYDKKQQAYRVTSELINDKLNWWMGNKEMAPIFREEEELHPFETEFELDSNEGHHHHHH | not soluble |
| MREKFYEKYYYAKSDIEGQDGGVVTAFLKYLLENGKIDGAIVVGDECWKPVSLVVQNAEDLLKTAKSKYAISTLDALRKAGEMGLEKVALEHHHHHH | not soluble |
| MASPLYLHSSDGPENLITNVQLKGENYEDWAKHVRNASRTKQKLGFIDGTLEKPTKEDDMEQ | not soluble |
| MSFLVLPPEVNSALMFAGAGSGPTLAAAAAWDGLAAELGQAANSFSSATAALADTAWQGPAATAMAAAAAPYASWLSTAATRALSAAAQAKAAAAVYEAARAATVDPLLVAANRHQLVSLVLSNLFGQNAPAIAATEAAYEQLWAADVAAMVSYHSGASAVAAQLAPWAQAVRALPNPTAPALASGPAALAIPALGIGNTGIGNIFSIGNIGDYNLGNGNTGNANLGSGNTGQANLGSGNTGFFNFGSGNTANTNFGSGNLGNLNLGSGNDGNGNFGLGNIGDGNRGSGNVGSFNFGTANAGSFNVGSANHGSPNVGFANLGNNNLGIANLGNNNLGIANLGNNNIGIGLTGDNMIGIGALNSGIGNLGFGNSGNNNIGLFNSGNNNIGFFNSGDSNFGFFNSGDTNTGFGNAGFTNTGFGNAGSGNFGFGNAGNNNFGFGNSGFENMGVGNSGAYNTGSFNSGTLNTGDLNSGDFNTGWANSGDINTGGFHSGDLNTGFGSPVDQPVMNSGFGNIGTGNSGFNNSGDANSGFQNTNTGAFFIGHSGLLNSGGGQHVGISNSGTGFNTGLFNTGFNNTGIGNSATNAAFTTTSGVANSGDNSSGGFNAGNDQSGFFDG | not soluble |
| MTIYFKNGFYDDTLGGIPEGAVAVRAEEYAALLAGQAQGGQIAADSDGRPVLTPPRPSDYHEWDGKKWKISKAAAAARFAKQKTALAFRLAEKADELKNSLLAGYPQVEIDSFYRQEKEALARQADNNAPTPMLAQIAAARGVELDVLIEKVIEKSARLAVAAGAIIGKRQQLEDKLNTIETAPGLDALEKEIEEWTLNIG | not soluble |
| MSLGNAFIALDFETANGKRTSICSVGMVKVVNNEIVESFYTLVNPFDYFSQTNIEVHGITPEDVIDAPSFEYVFPYMMQFIDKLPVVAHNAAFDMNVLHQSLKQLNIETPSMIYFCSYQLAKRTIDAYRYGLKHLMKHYKLDFHGHHDALNDAKACAMITFRLLKHYDNLQSMLQIYGKNLKEGHHHHHH | not soluble |
| MGSDKIHHHHHHMSVLYDTIGIDYANLRKPDLRIAAQIDAALGDAQSVLNVGAGAGSYEPAGRAVTALEPSAEMIAQRPEGTAPVVQGPAEDLPFADNSFDAAMAVLTIHHWSDKARGLAEMRRVARNRAVLLTYDPAFRGQWQTEYWPGLIGLDDGAMPPMAFFEEHLGPVDTQPVLVPHDCSDGFLYAYWRRPQAYLDPRIRKGSSGFWMIDGVEEGAQRLQADLASGAWAARHAALLERENADMGYRLVIADLV | not soluble |
| MGSDKIHHHHHHMKLDPKLAQDIVNKMMTQIPYNVNMMDDQGYIIASGDPQRLNTLHVGAVAAINQQTTLPMHDSYGDHGQPGVNMPIVFNDQIIGVIGITGDPEKVTPLASLLRVATELLLDQNQHNLQEKQYETTLNRFLYHWSQVTQQIDTNTNLLLEAQQLGIDILKPRAAIVLPKQTLPIGLLDATDFQFDLDTTTLIVLTALPATIARFTTYCQTGQHRLGIGLFDRNVGNSVRQARQTLRISQIFQRPDFIHYSQIAFIQALLDGHLHVTDLQQRFQKLASTANGRELIKTLGMFVRLNTNVLQTAAALHIHRNTLSYRLDRLQQIFQLDPHQTLDLFTLYVGYLYFKADK | not soluble |
| MDTQNLPDQIIPIFMSFDKNYALGASVSLYSLLSHASRHTSMIDFSPLNQSNKLLGANIVYKIHCLVKGVTLEQQNKLLKTIAPFKKFASLEFIHINSLDHSIESYLNKSCSKRYGGLLVLCRLLLASLFPNYSKIISIDADTVFLGDVASAYFALDNDPTKSLGMVRDTFSHLSFEAFCDFCKRACKNFKIDFSRFSPDELKRIHQGFNMGFLVAHLDRWRQDGFEKTALEFLKTRGKDLFYPEQCLVNMVFWERILELPIYYNCYSDFFKEHYPKNIIMLHFIKYKPWRSVSSLNGRLICYEAEASFWLANLFHTPFKNDFFKERLEMAKDQQMQSFKTHIRSQTIRNYLGFRVKNILKKVFKLSLEHHHHHH | soluble |
| MSLKYDYVIIGNSAGGIGCVEAIRELDVDSSILVISAEKYHAYSRALIPYYLDGKIEFEKMYYRPPDFYEKMDVETKLGVRAVGVDVEAKKVLLESGEEVEYGKLLIATGGKPFIPPMEGLGGQSNVFTFLKMDDVLAVEKAIKEAKKAVVLGGGIIGLMASEVLAKKGLDVKVVELADRVLAPVVDETTSRIVERKFEENGVEIILNNTISKVVGEERVEKVILRDGRELEADMLLVAVGVVPNVDIVKNTPIKVNRGIVVNRKMETSVKDVYACGDCAEIYDFVFGANRVLPLWPTAYTGGRIAGFNMVGIEREYNLATSMNAMHFFDYYIINAGLNVPNDSEEFEVIYRLEGDSYRKFALKDGRIAGFIIAGKMERAGIFLKLMEEGIDVSSFKEKLLKDNFGFLDIPEPTRWKLIEDKIKLGVVREIEGHHHHHH | soluble |
